We go through three molecules from patent US20070184522A1, “Cell death modulation via antagonists of Fasl and Fas activation” (University of Pittsburgh of the Commonwealth System of …, priority 2004, published 2007).

The target in experiment [1] is T1, Fas-Fc / Fas ligand binding (Mus musculus, UniProt P25446).
T1 construct: purchased R&D
T1 sequence (P25446 22-169 limits assumed): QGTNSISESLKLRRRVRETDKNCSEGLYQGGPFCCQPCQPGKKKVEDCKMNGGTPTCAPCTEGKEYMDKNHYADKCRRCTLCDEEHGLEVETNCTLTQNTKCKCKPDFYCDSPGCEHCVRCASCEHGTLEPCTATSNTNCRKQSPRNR
The experiment in a line: Competition ELISA: coated Fas ligand, Fas-Fc added with increasing amounts of polypeptide. Conditions: Fas ligand 1 μg/ml coated, Fas-Fc 1 μg/ml. Here is the method: This antibody also recognizes Fas-Fc which is also tagged at the C-terminus by His. In FIG. 2b, a fixed amount of purified recombinant Fas-ligand was added to Fas-Fc in the absence or presence of increasing amounts of AlphaMet as indicated. Samples were subjected to pull down using proteinA agarose followed by Western blot using a polyclonal rabbit anti-FasL antibody. […] Fas ligand (1 μg/ml) was coated in the wells of a microtiter plate (triplicate wells) then 1 μg/ml of Fas-Fc was added in the absence or presence of an increasing amount of the indicated polypeptide. A 13 mer YLGA polypeptide derived from FasL also was synthesized and used. The control peptide was a scrambled 13 mer. Anti human IgM-HRP conjugates were used to detect the bound Fas-Fc. […] One-way ANOVA was carried out for determination of statistical significance. […] Cells (3×10^5) were plated in 24-well plates having Poly-L-Lysine pre-treated cover glass. 2 μg/ml of Fas ligand was added and the cells were incubated for 30 min on ice. Cells were then washed by PBS twice, and were subjected to immunostaining using anti-Fas ligand antibody and fluorescent microscopy. In Frame A, Fas ligand was not added, in B, only Fas ligand was added, in C-F, Fas ligand was added with different polypeptides as follows: AlphaMet, 12 mer YLGA, control peptide, and YLGA mutated AlphaMet, respectively.
ELISA. Synthesized polypeptides (Genemed Synthesis, Inc. South San Francisco, Calif.) were dissolved in water and diluted in the coating buffer (0.05M of Sodium Carbonate, 0.02% of Sodium Azide, pH 9.6) to a final concentration of 1 ug/ml. One hundred microliter aliquots were added to coat each well of a 96-well microtitre plate. The coated plates were then washed with PBS-Tween (0.5%) three times. The plates were blotted and dried by tapping upside down on tissue paper. They were blocked using 200 μl of 1% of BSA in PBS solution followed by a 2 hour incubation. Plates were washed another three times, Fas-Fc was added, and the plates were incubated for another 2 hours. The plates were washed three times and anti-human IgM Fc HRP conjugates were included at a final concentration of 1:20,000, and incubated for 1 hour. Plates were washed three times again and ready-to-use TMD was added and incubated for 30 minutes. The color reaction was stopped by 2M of Sulfuric Acid. Plates were applied to color read at a wave length of 450 nm.

Experiment [2] deals with caspase-3 activation in Hepa 1-6 cells. The experiment in a line: Cleaved Caspase 3 in apoptotic Hepa 1-6 cell lysates. The class given is cell-based, mouse. Here is the method:
For FIG. 4a, Jurkat cells (1.5×10^5) were overnight treated in triplicate with 5 ng/ml of crosslinked human Fas ligand with or without 5 μg/ml of recombinant AlphaMet or 1 μg/ml of the indicated polypeptides. Percent apoptosis was determined by Trypan Blue staining using a hemocytometer. The data are representative and were repeated at least four times. […] The 17 kDa fragment of cleaved Caspase 3 is visualized by this antibody. The blot was reprobed for β-actin as a loading control. For FIG. 4c, serum deprived Hepa 1-6 cells (3×10^5) were overnight treated with 1 μg/ml of crosslinked mouse Fas ligand with or without AlphaMet or the indicated polypeptide. Media were collected and centrifuged to pellet the dead cells. […] The data in FIG. 4c represents three independent experiments.

The target of experiment [3] is T2, Fas trimerization in Jurkat cells (Homo sapiens, UniProt P25445).
T2 construct: endogenous in cells; host or cells: Jurkat
T2 sequence (P25445 26-335): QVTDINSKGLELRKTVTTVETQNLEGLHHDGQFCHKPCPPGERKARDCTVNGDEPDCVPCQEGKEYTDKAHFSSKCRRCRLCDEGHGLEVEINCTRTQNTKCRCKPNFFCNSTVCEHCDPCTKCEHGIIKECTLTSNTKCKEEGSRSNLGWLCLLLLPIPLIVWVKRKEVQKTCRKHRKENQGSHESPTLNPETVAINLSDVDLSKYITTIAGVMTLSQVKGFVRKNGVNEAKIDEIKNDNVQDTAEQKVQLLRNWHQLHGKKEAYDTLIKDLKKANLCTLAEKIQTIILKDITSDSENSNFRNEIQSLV
As to the kind of experiment: Chemical crosslinking (DTSSP) and Western blot of Fas trimerization in Jurkat cells. The class given is cell-based. The settings on record: Fas Ligand 2 μg/ml, DTSSP. As for the experimental part: FIG. 3a presents data collected from Jurkat cells (1×10^6) treated with 2 μg/ml of Fas Ligand with or without AlphaMet for 30 minutes on ice. Cells were washed with PBS twice and then incubated with 2 mM of DTSSP in PBS for 30 minutes. The crosslinking process was stopped by 20 mM of Tris (pH 7.5) for another 30 minutes. Cells were spun down and washed with PBS twice and lyzed in RIPA buffer. Cell lysates were subjected to SDS-PAGE under non-reducing or reducing conditions (FIG. 3b) and Western blot analysis using the mouse monoclonal antibody against human Fas. FIG. 3c depicts the quantification of the data in FIG. 3a by densitometry. The data are the mean and SE from three different independent crosslinking and Western blot experiments. […] Frame A: Acceptor CFP-Fas image; Frame B: Acceptor pre-bleach CFP-Fas image; Frame C: Acceptor post-bleach image. Frame D: Donor YFP-Fas image; Frame E: Donor pre-bleach image; Frame F: […]. The CFP-Fas strength in the selected region obtained a gain of 19.3% efficiency in the presence of FasL for 15 minutes. No FRET was observed without FasL. […] FIG. 3e depicts the results of experiments in which CFP-tagged Fas or CFP control vector were transiently expressed in Hepa 1-6 Cells (3×10^5). […] Cells were fixed and analyzed by fluorescence microscopy. […]

Consider HHIYLGATNYIY [12 mer], for which the “inhibition of FasL binding to Fas-Fc (ELISA)” value in experiment [1] was “significantly inhibited FasL binding”.
Still for that read-out and setting: the entry for YLGA [YLGA 4 mer] is “lower, yet significant inhibition”.

B1: alpha subunit of Met (AlphaMet), amino acid residues 1 to 306, His-tagged (receptor, mouse)
chain: MKAPTVLAPGILVLLLSLVQRSHGECKEALVKSEMNVNMKYQLPNFTAETPIQNVVLHGHHIYLGATNYIYVLNDKDLQKVSEFKTGPVLEHPDCLPCRDCSSKANSSGGVWKDNINMALLVDTYYDDQLISCGSVNRGTCQRHVLPPDNSADIQSEVHCMFSPEEESGQCPDCVVSALGAKVLLSEKDRFINFFVGNTINSSYPPGYSLHSISVRRLKETQDGFKFLTDQSYIDVLPEFLDSYPIKYIHAFESNHFIYFLTVQKETLDAQTFHTRIIRFCSVDSGLHSYMEMPLECILTEKRRKRHHHHHH
As to B1, the “Activation of caspase-3” value in experiment [2] is listed as “also inhibited by the wild type”. For the same molecule, the Fas trimerization result in experiment [3] was “reduced the Fas trimerization to the background level”.
